We go through seven molecules from patent publication US20190359666A1 (ACADEMIA SINICA, published 2019).

B4: VEGF-B (ligand, UniProt P49765-2 22-188, looked up)
chain: PVSQPDAPGHQRKVVSWIDVYTRATCQPREVVVPLTVELMGTVAKQLVPSCVTVQRCGGCCPDDGLECVPTGQHQVRMQILMIRYPSSQLGEMSLEEHSQCECRPKKKDSAVKPDSPRPLCPRCTQHHQRPDPRTCRCRCRRRSFLRCQGRGLELNPDTCRCRKLRR

In test [1] the target is T1, IGF-1 (UniProt P05019 49-118).
T1 construct: Biotinylated IGF-1 is written as the same molecule; also called biotinylated IGF-1; IGF-1-bio
T1 sequence (P05019 49-118 limits assumed): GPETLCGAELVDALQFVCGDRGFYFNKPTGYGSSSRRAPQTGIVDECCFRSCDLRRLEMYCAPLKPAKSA
Description: binding test, fragment as ligand, growth factor in 0.65 M NaCl.

A further test deals with IGF-2 (UniProt P01344 25-91). The test is described as above.
IGF-2, sequence (P01344 25-91 limits assumed): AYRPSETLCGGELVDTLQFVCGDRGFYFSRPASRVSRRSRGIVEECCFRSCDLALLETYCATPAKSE
A further test has as its target T2, nrgbx (UniProt Q02297-6 2-246, limits assumed).
T2 construct: also called neuregulin
T2 sequence (looked up): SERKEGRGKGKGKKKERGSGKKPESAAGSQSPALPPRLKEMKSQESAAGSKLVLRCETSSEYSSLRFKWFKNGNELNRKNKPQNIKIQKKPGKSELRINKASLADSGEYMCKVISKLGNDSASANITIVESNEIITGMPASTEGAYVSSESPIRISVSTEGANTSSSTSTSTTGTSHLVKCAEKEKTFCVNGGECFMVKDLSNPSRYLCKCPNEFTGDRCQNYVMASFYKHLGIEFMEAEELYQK
The test is described as above.

Test [2] deals with T3, bFGF (UniProt P09038 143-288, limits assumed).
T3 construct: also called basic fibroblast growth factor
T3 sequence (P09038 143-288 limits assumed): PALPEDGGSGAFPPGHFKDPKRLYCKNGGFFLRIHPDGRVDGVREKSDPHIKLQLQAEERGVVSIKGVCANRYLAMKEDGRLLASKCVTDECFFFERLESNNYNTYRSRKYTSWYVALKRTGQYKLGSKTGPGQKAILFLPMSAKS
The description is as above.

In the test “VEGF-B” the target is B4. The description is as above.
The target of a further test is T4, PDGF AB (UniProt P04085 87-211; P01127 82-190, limits assumed).
T4 construct: Heterodimer by its name
T4 sequence (P01127 82-190 limits assumed, chain 2 of 2, other chains not shown): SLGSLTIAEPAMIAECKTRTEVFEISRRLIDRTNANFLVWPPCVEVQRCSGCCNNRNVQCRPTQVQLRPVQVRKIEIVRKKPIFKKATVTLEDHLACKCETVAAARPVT
The test is described as above.

The target in the next test is T5, wild-type IGFBP3 (human, UniProt P17936 28-291).
T5 construct: also called human IGFBP3
Put plainly: summary of the foregoing examples; method not given.

In test [3] the target is T1, IGF-1. Put plainly: biotinylated IGF-1 ELISA on Fc-captured chimera, 4 C PBS control (the reference); experiment 3-192. The protocol: (§1) Plates were coated with goat anti-human Fc antibody, blocked and then incubated with chimera as in the Fc ELISA. Biotinylated IGF-1 (GroPep) or VEGF-Biotin (R&D Systems VEGF biotinylated with sulfo-NHS-LC-biotin as per instructions (Pierce) was added for 2 hours followed by streptavidin-HRP (Jackson Immunoresearch) for 30 minutes. Chromogenic development with tetramethyl benzidine was performed as described above.
(§2) To test the stability of the present chimeras, some purified chimeras (see, Table 4) were incubated with PBS or a conditioned medium from the MCF-7 cell line overnight at 37° C. and PBS overnight at 4° C. The IGF-1 binding and VEGF binding were measured using the biotinylated IGF-1 and VEGF.

In test [4] the target is T1, IGF-1. Put plainly: biotinylated IGF-1 ELISA on Fc-captured chimera, after overnight in PBS at 37 C, against the 4 C PBS control; experiment 3-192. The protocol: as §1, §2
(An ELISA detects its analyte on a solid surface through an enzyme-linked reagent.)

Test [5] addresses T1, IGF-1. Put plainly: biotinylated IGF-1 ELISA on Fc-captured chimera, after overnight in MCF-7 conditioned medium at 37 C, against the 4 C PBS control; experiment 3-192. The protocol:
as §1, §2

Test [6] has as its target T1, IGF-1. Put plainly: Biacore SPR; experiment 4-79. As to the method:
(§3) Biacore binding was performed at David Myszka's laboratory at the University of Utah or at the Genomic Research Center at Academia Sinica. Surfaces of binding protein chimera were made via chemical immobilization on a CM4 chip using standard amine coupling chemistry. […] Excess surface carboxyl activated sites on all four flow cells was blocked using the doubly positively charged species ethylenediamine. Binding experiments (but not immobilizations) in HBS-P (10 mM HEPES pH 7.4, 150 mM NaCl, 0.05% P20), The HBS-P was supplemented with BSA at 0.2 mg/mL, or HBS-P was supplemented with 500 mM NaCl (650 mM NaCl, final concentration). Analytes were also reconstituted in the corresponding buffer. All experiments were performed at 25° C. 1/150 dilutions of phosphoric acid were used to regenerate IGFBP3-Fc surfaces and a sequence of 3 M MgCl₂ followed by 5 M GuCl was used to regenerate surfaces immobilized with growth factor. Dissociation constants reported below used immobilized binding protein unless noted. Differences between binding constants may be expected between growth factor immobilization and chimera immobilization.

Test [7] concerns the target T3, bFGF. Description: Biacore SPR, immobilised bFGF; experiment 4-79. As to the method: as §3
(In general: Surface plasmon resonance follows binding to a sensor surface in real time, without labels.)

Test [8] has as its target T1, IGF-1. Put plainly: biotinylated IGF-1 ELISA on Fc-captured chimera, 4 C PBS control (the reference); experiment 4-81. The protocol:
as §1, §2

Test [9] concerns the target T1, IGF-1. Put plainly: biotinylated IGF-1 ELISA on Fc-captured chimera, after overnight in PBS at 37 C, against the 4 C PBS control; experiment 4-81. The protocol: as §1, §2
The target of test [10] is T1, IGF-1. Description: biotinylated IGF-1 ELISA on Fc-captured chimera, after overnight in MCF-7 conditioned medium at 37 C, against the 4 C PBS control; experiment 4-81. The protocol: as §1, §2

B1: 4142 (other)
chain: GASSAGLGPVVRCEPCDARALAQCAPPPAVCAELVREPGCGCCLTCALSEGQPCGIYTERCGSGLRCQPSPDEARPLQALLDGRGLCVNASAVSVECPPCPAPPVAGPSVFLFPPKPKDQLMISRTPEVTCVVVDVSHEDPEVKFNWYVDGVEVHNAKTKPREEQYNSTYRVVSVLTVLHQDWLNGKEYKCKVSNKGLPSSIEKTISKAKGQPREPQVYTLPPSREEMTKNQVSLTCLVKGFYPSDIAVEWESNGQPENNYKTTPPVLDSDGSFFLYSKLTVDKSRWQQGNVFSCSVMHEGLHNHYTQKSLSLSPGK
notes: Fragment of BP3; also called ligand 4142; N-terminus only
For the molecule B1, the binding result in the test with IGF-1 [1] is recorded as “binds”; with IGF-2 it was “binds”; with nrgbx, “no binding”; in the test with bFGF [2], “no binding”; with VEGF-B, “no binding”; with PDGF AB, “no binding”.

B2: 4382 (other)
chain: GASSAVNASAVSRLRAYLLPAPPAPGNASESEEDRSAGSVESPSVSSTHRVSDPKFHPLHSKIIIIKKGHAKDSQRYKVDYESQSTDTQNFSSESKREVECPPCPAPPVAGPSVFLFPPKPKDQLMISRTPEVTCVVVDVSHEDPEVKFNWYVDGVEVHNAKTKPREEQYNSTYRVVSVLTVLHQDWLNGKEYKCKVSNKGLPSSIEKTISKAKGQPREPQVYTLPPSREEMTKNQVSLTCLVKGFYPSDIAVEWESNGQPENNYKTTPPVLDSDGSFFLYSKLTVDKSRWQQGNVFSCSVMHEGLHNHYTQKSLSLSPGK
notes: Fragment of BP3; also called ligand 4382; linker region alone
For B2, the binding result with nrgbx, with bFGF [2], in the test with VEGF-B and with PDGF AB was “no binding” throughout.

B3: 4141 (other)
chain: GASSAGLGPVVRCEPCDARALAQCAPPPAVCAELVREPGCGCCLTCALSEGQPCGIYTERCGSGLRCQPSPDEARPLQALLDGRGLCVNASAVSKGHAKDSQRYKVDYESQSTDTQNFSSESKRETEYVECPPCPAPPVAGPSVFLFPPKPKDQLMISRTPEVTCVVVDVSHEDPEVKFNWYVDGVEVHNAKTKPREEQYNSTYRVVSVLTVLHQDWLNGKEYKCKVSNKGLPSSIEKTISKAKGQPREPQVYTLPPSREEMTKNQVSLTCLVKGFYPSDIAVEWESNGQPENNYKTTPPVLDSDGSFFLYSKLTVDKSRWQQGNVFSCSVMHEGLHNHYTQKSLSLSPGK
notes: Fragment of BP3; also called N-terminus plus partial linker
As for B3, the binding result with IGF-1 [1], in the test with IGF-2, with bFGF [2], with VEGF-B and in the test with PDGF AB was “binds” each time.
On to B4, for which, in the test with wild-type IGFBP3, the binding result was “binds”.

B5: IGFBP3-GS16-VEGF-Fc (Fc fusion)
chain: GASSAGLGPVVRCEPCDARALAQCAPPPAVCAELVREPGCGCCLTCALSEGQPCGIYTERCGSGLRCQPSPDEARPLQALLDGRGLCVNASAVSKGHAKDSQRYKVDYESQSTDTQNFSSESKRETEYGPCRREMEDTLNHLKFLNVLSPRGVHIPNCDKKGFYKKKQCRPSKGRKRGFCWCVDKYGQPLPGYTTKGKEDVHCYSMQSKGGGGSGGGGSGGGGSGIYIFISDTGRPFVEMYSEIPEIIHMTEGRELVIPCRVTSPNITVTLKKFPLDTLIPDGKRIIWDSRKGFIISNATYKEIGLLTCEATVNGHLYKTNYLTHRQGYRIYDVVLSPSHGIELSVGEKLVLNCTARTELNVGIDFNWEYPSSKHQHKKLVNRDLKTQSGSEMKKFLSTLTIDGVTRSDQGLYTCAASSGLMTKKNSTFVRVHEKVECPPCPAPPVAGPSVFLFPPKPKDQLMISRTPEVTCVVVDVSHEDPEVKFNWYVDGVEVHNAKTKPREEQYNSTYRVVSVLTVLHQDWLNGKEYKCKVSNKGLPSSIEKTISKAKGQPREPQVYTLPPSREEMTKNQVSLTCLVKGFYPSDIAVEWESNGQPENNYKTTPPVLDSDGSFFLYSKLTVDKSRWQQGNVFSCSVMHEGLHNHYTQKSLSLSPGK
notes: IGFBP3 with linker deletion 1 - GS 16 linker - v1v2 - Fc; dimeric; also called Chimera B; 3-t3-3-GS16-V1V2
For B5, the “IGF-1 binding remaining over controls” value with IGF-1 [3] is 100%; with IGF-1 [4], 167%; with IGF-1 [5], 82%.

B6: IGFBP3-Fc-2 (Fc fusion)
chain: GASSAGLGPVVRCEPCDARALAQCAPPPAVCAELVREPGCGCCLTCALSEGQPCGIYTERCGSGLRCQPSPDEARPLQALLDGRGLCVNASAVSRPAPPAPGNASESEEDRSAGSVESPSVSSTHRVSDPKFHPKGHAKDSQRYKVDYESQSTDTQNFSSESKRETEYGPCRREMEDTLNHLKFLNVLSPRGVHIPNCDKKGFYKKKQCRPSKGRKRGFCWCVDKYGQPLPGYTTKGKEDVHCYSMQSKVECPPCPAPPVAGPSVFLFPPKPKDQLMISRTPEVTCVVVDVSHEDPEVKFNWYVDGVEVHNAKTKPREEQYNSTYRVVSVLTVLHQDWLNGKEYKCKVSNKGLPSSIEKTISKAKGQPREPQVYTLPPSREEMTKNQVSLTCLVKGFYPSDIAVEWESNGQPENNYKTTPPVLDSDGSFFLYSKLTVDKSRWQQGNVFSCSVMHEGLHNHYTQKSLSLSPGK
notes: IGFBP3 with IGFBP3 linker deletion 2, fused to Fc; dimeric; also called 3(del2)3; 3(del2)3Fc
A word on the Kd: it is the free concentration of one partner at which half of the binding sites on the other are occupied at equilibrium, for simple one-to-one binding. As for B6, the dissociation constant Kd in the test with IGF-1 [6] turned out to be 0.32 nM; in the test with bFGF [7], 4.32 nM. The “IGF-1 binding remaining over controls” value with IGF-1 [8] is 100%; with IGF-1 [9], 72%; with IGF-1 [10], 43%.

B7: Rantes (ligand, UniProt P13501 24-91, looked up)
chain: SPYSSDTTPCCFAYIARPLPRAHIKEYFYTSGKCSNPAVVFVTRKNRQVCANPEKKWVREYINSLEMS
notes: The excerpts show no construct or source
Turning to B7, the binding result with wild-type IGFBP3 is reported as “binds”.
